Measured values: the supplement of paper PMC9732359
± gives the uncertainty stated by the source.

Assay: protein stability index of a GFP-peptide fusion (yeast GPS) (PSI 1-4); higher = more stable; sorted into four equal gates, so the index is relative within each strain
Summary of the method: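 Yeast carrying a pooled library were grown to mid-log phase in leucine-free medium. Each library plasmid expresses Cherry and has a tiled 17-residue yeast protein peptide fused downstream of GFP. Cells were sorted into four equal gates by GFP/Cherry ratio, and plasmids from each gate were PCR-amplified, Illumina-sequenced and assigned to strains by barcode. Summing, across gates, the read frequency times the gate number gave each peptide's protein stability index.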

| Sequence | protein stability index (doa10∆) | protein stability index (pdr5∆) | protein stability index (san1∆) | protein stability index (ubr1∆) |
| --- | --- | --- | --- | --- |
| NKTSNNNNVTAVPAATP [SWI1] | 2.84 ± 0.044 | 3.06 ± 0.046 | 2.81 ± 0.032 | 3.07 ± 0.042 |
| SSVNEDTFLPPPPPPPS [PRP8] | 2.73 ± 0.041 | 2.72 ± 0.04 | 2.44 ± 0.038 | 2.46 ± 0.037 |
| MKRNCGQIITLFSSRRL [RMP1] | 2.3 ± 0.045 | 2.46 ± 0.053 | 2.42 ± 0.058 | 2.29 ± 0.071 |
| KPFRQTKFKVRGSSSLY [RPL38] | 2.83 ± 0.12 | 3.33 ± 0.071 | 3.17 ± 0.09 | 3 ± 0.085 |
| NGKTRTLENTLKAAFVA [RPS2] | 2.85 ± 0.11 | 2.8 ± 0.14 | 3 ± 0.089 | 2.67 ± 0.085 |
| LEWLENPSNTPDKDYLL [FAS1] | 3.16 ± 0.11 | 3.21 ± 0.088 | 3.27 ± 0.071 | 3.29 ± 0.11 |
| SSNIVNENDSQAIITER [YIL149C/MLP2] | 3.14 ± 0.12 | 2.93 ± 0.086 | 2.07 ± 0.26 | 2.86 ± 0.057 |
| NGKEVPLAKIYLEENKS [MED1] | 3.2 ± 0.1 | 3.27 ± 0.071 | 3.12 ± 0.075 | 3.21 ± 0.063 |
| SVHLIECYKQLFLTAPD [YCS4] | 1.52 ± 0.24 |  |  |  |
| AMFEICLKRGWGHPTRM [BRR2] |  |  | 2.21 ± 0.14 | 2.96 ± 0.18 |
| QDREITNWARTTFRNEY [MED8] | 2.49 ± 0.09 | 2.07 ± 0.083 | 2.47 ± 0.092 | 2.51 ± 0.096 |
| DMDGVDFNQAFEGTDDN [BRN1] | 2.97 ± 0.094 | 3.04 ± 0.091 | 3.35 ± 0.094 | 3.17 ± 0.072 |
| HHNDISNDSQSHFDYNT [YCG1] | 1.89 ± 0.18 | 2.16 ± 0.17 | 2.49 ± 0.14 | 2.39 ± 0.16 |
| WASKYGQEYPRIIGLSA [BRR2] | 1.47 ± 0.073 | 2.32 ± 0.089 | 1.87 ± 0.085 | 1.93 ± 0.052 |
| YLEESFTNLGIIVQYLT [RGR1] | 2.17 ± 0.2 | 2.49 ± 0.29 | 2.16 ± 0.19 | 2.8 ± 0.09 |
| RLAEFKRRKLDLNNAVQ [SMC4] | 3.28 ± 0.27 | 2.87 ± 0.12 | 2.98 ± 0.067 | 2.96 ± 0.078 |
| GMTPCTVSPDFVAATTN [FAS1] | 1.83 ± 0.076 | 1.98 ± 0.054 | 1.86 ± 0.12 | 1.99 ± 0.07 |
| LPVKWETTTQFKATHIL [FAS1] | 2.52 ± 0.06 | 2.32 ± 0.057 | 2.23 ± 0.063 | 2.34 ± 0.04 |
| IPYAAKLLFQELLSMNI [RET1] | 1.55 ± 0.1 | 1.46 ± 0.084 | 1.31 ± 0.16 | 1.35 ± 0.056 |
| PSYYGVRDTSPHGISVF [BRR2] | 1.35 ± 0.069 | 1.41 ± 0.057 | 2.29 ± 0.077 | 1.94 ± 0.045 |
| TIGAIFLNHAFDYMNRY [CDC53] | 2.04 ± 0.065 | 2.1 ± 0.066 | 1.78 ± 0.076 | 1.89 ± 0.046 |
| IDLEAPVQIVKRITQIT [RPS20] | 2.15 ± 0.12 | 2.23 ± 0.2 | 1.78 ± 0.14 | 2.2 ± 0.094 |
| SSNPQSAYVKAFYQKGN [SMC1] | 1.87 ± 0.049 | 1.98 ± 0.047 | 1.96 ± 0.052 | 1.95 ± 0.033 |
| LFGGRHYLFNTFTFTAH [SWP82] | 2.03 ± 0.042 | 2.1 ± 0.035 | 1.69 ± 0.061 | 1.82 ± 0.024 |
| ILTPESQLKKSKAQQKT [RPL7A] | 3.02 ± 0.078 | 3.02 ± 0.12 | 2.98 ± 0.12 | 2.98 ± 0.056 |
| SGKSNILDAICFVLGIA [SMC2] | 1.85 ± 0.07 | 1.86 ± 0.087 | 2.25 ± 0.11 | 1.82 ± 0.066 |
| SLDTLELESITESITHD [NUT1] | 2.57 ± 0.063 | 2.42 ± 0.046 | 2.76 ± 0.059 | 2.34 ± 0.035 |
| SLVSTQSSSSTRSHEYG [REC8] | 2.86 ± 0.08 | 3.04 ± 0.11 | 2.72 ± 0.057 | 3.19 ± 0.12 |
